# Literature values as cited in PMC2847397.
# Target: Asp408 (UniProt position 408, GLLVDDAIVVV)
# Test: chemical modification
substance,measurement,value
Multidrug efflux pump subunit AcrB (RND transporter) (Escherichia coli),pKa,7.4
